# According to US20220008520A1, “METHODS AND MATERIALS FOR REDUCING AGE-RELATED STRIATED MUSCLE AND COGNITIVE DECLINE” (University of Pittsburgh - Of the Commonwealth System of …, priority 2018, published 2022):
# How the values were obtained:
# [1] = test system: MPCs; test: qPCR-based analysis of mtDNA damage and mtDNA copy number in MPCs; assay type: cell-based, mice; settings: aged MPCs, recombinant α-Klotho in culture for 48 hours, 0.05μg/mL
# Experimental: mtDNA integrity was next examined in MPCs isolated from young or aged mice, using a qPCR-based assay. The method used is based on the principle that a wide variety of types of DNA damage have the propensity to block DNA polymerase progression (see, e.g., Furda et al., 2012 DNA Repair (Amst), 11:684-92). Therefore, this assay detects numerous kinds of base DNA damage or DNA repair intermediates such as abasic sites, as well as single and double DNA strand breaks.
# MPCs were treated with 25 nmol of silencing RNA (siRNA) to α-Klotho (GE Dharmacon, Product no.SO2462181G) for 48 hours. As a control, young MPCs were treated with a non-targeting (scramble) siRNA. […]
# (§1) Oxygen consumption rate (OCR) and extracellular acidification rate (ECAR) were measured in real time using a Seahorse XFe96 Extracellular Flux Analyzer (Billerica, Mass.) as described elsewhere (see, e.g., de Moura and Van Houten, 2014 Methods Mol Biol, 1105:589-602). The basal OCR was measured by averaging the OCR values before treating the cells with oligomycin. Total reserve capacity was calculated by the differences of OCR between treatment with FCCP and 2DG and basal values. Mitochondrial DNA damage was quantified as described elsewhere (see, e.g., Sanders et al., 2014 Toxicol Sci, 142:395-402; and Sanders et al., 2014 Neurobiol Dis, 62:381-6). […]
# [2] = test system: MPCs; test: Seahorse XFe96 analysis of MPC bioenergetics (basal OCR, reserve capacity); assay type: cell-based, mice; settings: aged MPCs, recombinant α-Klotho in culture for 48 hours, 0.05μg/mL
# Experimental: In light of the loss of mitochondrial ultrastructural resulting from decreased α-Klotho expression, we next evaluated whether loss of α-Klotho drives MPC mitochondrial dysfunction. The bioenergetic profiles of young and aged MPCs were studied using a Seahorse XFe96 Flux analyzer, which measures oxygen consumption rate (OCR), a measure of oxidative phosphorylation. OCR was measured again after injection of oligomycin, FCCP, 2-deoxyglucose (2-DG), and rotenone. […] When young MPCs were treated with siRNA to α-Klotho, basal OCR was reduced to ˜25% values of scramble-treated counterparts (FIG. 4C, FIG. 14). MPCs isolated from uninjured Kl+/− mice display a similarly blunted bioenergetic profile (FIG. 4D). […] Reserve capacity represents the spare bioenergetic capacity, is calculated as the difference between the basal and maximal OCR, and indicates the ability of a cell to respond to stress. […]
# as §1, with “values.” for “values. Mitochondrial DNA damage was quantified as described elsewhere (see, e.g., Sanders et al., 2014 Toxicol Sci, 142:395-402; and Sanders et al., 2014 Neurobiol Dis, 62:381-6).”
# [3] = test system: OGG1 and APE1; test: LXRepair multiplex DNA base excision repair enzyme activities in MPCs; assay type: cell-based, mice; settings: siRNA-treated MPCs from young animals, 48 hours of α-Klotho supplementation
# Experimental: LXRepair multiplex technology (see, e.g., Garreau-Balandier et al., 2014 FEBS Lett, 588:1673-9; and Sauvaigo et al., 2004 Anal Biochem, 333:182-92) was used to evaluate the DNA base excision repair (BER) enzyme activities of OGG1 and APE1, which work on two common oxidative DNA lesions, 8-oxodG and abasic sites, respectively.
# MPCs were treated with 25 nmol of silencing RNA (siRNA) to α-Klotho (GE Dharmacon, Product no.SO2462181G) for 48 hours. As a control, young MPCs were treated with a non-targeting (scramble) siRNA. Aged MPCs were treated with 0.05μg/mL exogenous α-Klotho (R & D systems, Product no. aa 34-981), added to the culture media for 48 hours.
# [4] = test system: aged mice; test: Cardiotoxin TA muscle injury in aged mice, α-Klotho supplementation in vivo; settings: for functional recovery (wire hang test, in situ contractile testing) / myofiber area / number of regenerating fibers: daily i.p. 10 μg/kg
# Experimental: Wild-type male C57BL/6 young, Kl+/− mice, or old mice received injuries to bilateral Tibialis Anterior (TA) muscles via an intramuscular injection of cardiotoxin (10 μL of 1 mg/mL). Fourteen days following the injury, TAs were harvested for histological analysis of α-Klotho, fibrosis (picrosirius red), degenerating myofibers (IgG) and myofiber regeneration (laminin). Second Harmonic Generation (SHG) imaging was performed on isolated TA muscles treated with a non-targeting control or lentiviral knockdown of α-Klotho, as well as pump-administered animals in order to visualize collagen and myofibers within the muscle 14 days post injury, as described elsewhere (see, e.g., Zhang et al., 2016 Stem Cells 34:732-742).
# Strength endurance was tested using the hang-wire test as described elsewhere (see, e.g., Aartsma-Rus et al., J. Vis. Exp 85:51303 (2014)). The Hang Impulse (HI) score was calculated as bodyweight (grams)×time hung (seconds). Male mice were used for all testing using C57B1/6 mice. Wild type and Kl+/− were females for testing.
# Mini osmotic pumps containing either saline or α-Klotho (324 pg/ml in saline vehicle) were inserted subcutaneously into aged mice. After 2 days, bilateral TA muscles were injured by intramuscular CTX injection (as above). Osmotic pumps remained implanted until euthanasia 14 days post injury. Isotonic saline or α-Klotho (10 μg/kg body weight) was administered to aged animals via daily intraperitoneal injections over days 1-3 post-injury or 3-5 days post-injury. The TAs were then harvested 14 days post injury and preserved for histology or SHG analysis. Blood serum was also collected to evaluate circulating α-Klotho levels via ELISA. The activity of α-Klotho was confirmed as described elsewhere (see, e.g., Shalhoub et al., 2011 Calcif Tissue Int, 89:140-50).
molecule,measurement,setting,value
"α-Klotho: recombinant/exogenous α-Klotho protein (R & D systems, Product no. aa 34-981) (protein) AEPGQGAQTWARFARAPAPEAAGLLHDTFPDGFLWAVGSAAYQTEGGWRQHGKGASIWDTFTHHSGAAPSDSPIVVAPSGAPSPPLSSTGDVASDSYNNVYRDTEGLRELGVTHYRFSISWARVLPNGTAGTPNREGLRYYRRLLERLRELGVQPVVTLYHWDLPQRLQDTYGGWANRALADHFRDYAELCFRHFGGQVKYWITIDNPYVVAWHGYATGRLAPGVRGSSRLGYLVAHNLLLAHAKVWHLYNTSFRPTQGGRVSIALSSHWINPRRMTDYNIRECQKSLDFVLGWFAKPIFIDGDYPESMKNNLSSLLPDFTESEKRLIRGTADFFALSFGPTLSFQLLDPNMKFRQLESPNLRQLLSWIDLEYNHPPIFIVENGWFVSGTTKRDDAKYMYYLKKFIMETLKAIRLDGVDVIGYTAWSLMDGFEWHRGYSIRRGLFYVDFLSQDKELLPKSSALFYQKLIEDNGFPPLPENQPLEGTFPCDFAWGVVDNYVQVDTTLSQFTDPNVYLWDVHHSKRLIKVDGVVAKKRKPYCVDFSAIRPQITLLREMRVTHFRFSLDWALILPLGNQTQVNHTVLHFYRCMISELVHANITPVVALWQPAAPHQGLPHALAKHGAWENPHTALAFADYANLCFKELGHWVNLWITMNEPNTRNMTYRAGHHLLRAHALAWHLYDDKFRAAQKGKISIALQADWIEPACPFSQNDKEVAERVLEFDIGWLAEPIFGSGDYPRVMRDWLNQKNNFLLPYFTEDEKKLVRGSFDFLAVSHYTTILVDWEKEDPMKYNDYLEVQEMTDITWLNSPSQVAVVPWGLRKVLNWLRFKYGDLPMYVTANGIDDDPHAEQDSLRIYYIKNYVNEALKAYVLDDINLCGYFAYSLSDRSAPKSGFYRYAANQFEPKPSMKHYRKIIDSNGFLGSGTLGRFCPEEYTVCTECGFFQTRKSLLVFISFLVFTFIISLALIFHYSKKGQRSYK",mtDNA damage,[1],decreased mtDNA damage
same,OCR,[2],increased OCR
same,reserve capacity,[2],increased reserve capacity
same,"activity of BER enzymes (OGG1, APE1; 8-oxodG and abasic sites)",[3],dramatically stimulated the activity of these BER enzymes
same,"activity of BER enzymes (OGG1, APE1; 8-oxodG and abasic sites)",[3]; listed as Klotho,stimulated repair
same,"functional recovery (wire hang test, in situ contractile testing)",[4]; 1-3 dpi,only animals receiving α-Klotho over 3-5 dpi displayed an improved functional recovery
same,myofiber area,[4]; 1-3 dpi,significant increase in myofiber area
same,number of regenerating fibers,[4]; 1-3 dpi,significant increase in the number of regenerating fibers
same,"functional recovery (wire hang test, in situ contractile testing)",[4]; 3-5 dpi,improved functional recovery
same,myofiber area,[4]; 3-5 dpi,significant increase in myofiber area
same,number of regenerating fibers,[4]; 3-5 dpi,significant increase in the number of regenerating fibers
same,local α-Klotho within the injured muscle areas,"[4]; osmotic pump, 324 pg/ml, 14 dpi",significant increase in local α-Klotho
same,increase in the number of MyoD+ cells at the site of injury,"[4]; osmotic pump, 14 dpi",approximately 3.5 fold
same,number of regenerating fibers after injury (histology and SHG),"[4]; osmotic pump, 14 dpi",increased number of regenerating fibers
same,myofiber cross sectional area,"[4]; osmotic pump, vs saline",no significant increase
same,total muscle area,"[4]; osmotic pump, vs saline",no significant increase
